Target: T1, trigger factor (Escherichia coli), P0A850
T1 chain: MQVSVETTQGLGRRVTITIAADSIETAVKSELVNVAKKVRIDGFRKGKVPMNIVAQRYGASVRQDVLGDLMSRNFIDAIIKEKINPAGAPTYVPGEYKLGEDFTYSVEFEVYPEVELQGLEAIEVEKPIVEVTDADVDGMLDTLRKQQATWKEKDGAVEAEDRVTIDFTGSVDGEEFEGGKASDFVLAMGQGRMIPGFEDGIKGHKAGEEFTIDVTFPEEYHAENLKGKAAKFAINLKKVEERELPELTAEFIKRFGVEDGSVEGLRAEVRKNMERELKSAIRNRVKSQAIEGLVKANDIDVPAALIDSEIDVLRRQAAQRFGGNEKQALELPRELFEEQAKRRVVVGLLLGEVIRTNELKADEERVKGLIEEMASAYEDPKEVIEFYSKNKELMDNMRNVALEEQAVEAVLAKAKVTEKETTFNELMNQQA
Assay: microfluidic diffusional sizing
Details: remark: other sources report otherwise

B1: trigger factor, P0A850 (protein)
chain: MQVSVETTQGLGRRVTITIAADSIETAVKSELVNVAKKVRIDGFRKGKVPMNIVAQRYGASVRQDVLGDLMSRNFIDAIIKEKINPAGAPTYVPGEYKLGEDFTYSVEFEVYPEVELQGLEAIEVEKPIVEVTDADVDGMLDTLRKQQATWKEKDGAVEAEDRVTIDFTGSVDGEEFEGGKASDFVLAMGQGRMIPGFEDGIKGHKAGEEFTIDVTFPEEYHAENLKGKAAKFAINLKKVEERELPELTAEFIKRFGVEDGSVEGLRAEVRKNMERELKSAIRNRVKSQAIEGLVKANDIDVPAALIDSEIDVLRRQAAQRFGGNEKQALELPRELFEEQAKRRVVVGLLLGEVIRTNELKADEERVKGLIEEMASAYEDPKEVIEFYSKNKELMDNMRNVALEEQAVEAVLAKAKVTEKETTFNELMNQQA
- Kd: 1500 nM
